Test results taken from US20250327097A1, “ORGANISMS PRODUCING LESS CROTONIC ACID” (Global Bioenergies, priority 2021, published 2025).
Where a chain is given by its changes, count along the chain named. Names and notes keep the numbering of the source.

B1: I283T-N285P-N287T-Q290E-S322T-N388M-K394R-i424aL-C430A-L432F-L434W-S436N-dG462 (protein)
chain: MFLKSLREQINLLKRQGDLRIINRPVDSYLEAAAIIRRSTETKAPVPLMTNIKGYPGCSIVGGLAALSSNPEYPLSRVAMSLGLSTTASAQSIVQYLIDGLKKTPYLPVEIDSNSAPCKQNILRGEDASLAHFPIPQVHQHDGNRYVNTWGVFIVESPDGQWCNWSIQRVQYLNDRQMIALVFPSQHISDIWEEWVKIGKPMPYALVQGCEPIVPYIAGLPLLERNVNEAEYIGALYGKGIEVVKCETHDLRVPASSEVVIEGYFAITREGVEGPFGEFAGYTPPETSLEPILSITAISWQDDPIWPVVAEGKPVDEYHTCTGIGDAAAIQNVLLTANLPVSFVWVPLYSACHLMIVSINRHWRQTHPDLTSEQLTKKVGDVIHQTRMSIKLPRIVVLDDDVDPADTESLLWALATRIHPERKRYFYESAIFPWLNCYSEEERHNRKGKRVIIDALLPENHGAISSFDYAYPDDIKQRVLMHWETDFSHD
B2: I283T-N285P-N287T-Q290E-S322T-N388M-K394R-C430A-L432F-L434W-S436N-i443aV-dG462 (protein)
chain: B1 chain
B3: I283T-N285P-N287T-Q290E-S322T-N388M-K394R-C430A-i430aN-L432F-L434W-S436N-dG462 (protein)
chain: B1 chain
B4: I283T-N285P-N287T-Q290E-S322T-N388M-K394R-i426aL-C430A-L432F-L434W-S436N-dG462 (protein)
chain: B1 chain
B5: I283T-N285P-N287T-Q290E-S322T-N388M-K394R-C430A-L432F-L434W-S436N-i444aV-dG462 (protein)
chain: B1 chain
B6: I283T-N285P-N287T-Q290E-S322T-N388M-K394R-C430A-L432F-L434W-S436N-i444aR-dG462 (protein)
chain: B1 chain
B7: I283T-N285P-N287T-Q290E-S322T-N388M-K394R-C430A-L432F-L434W-S436N-i444aE-dG462 (protein)
chain: B1 chain
B8: I283T-N285P-N287T-Q290E-S322T-N388M-K394R-C430A-L432F-L434W-S436N-i444aK-dG462 (protein)
chain: B1 chain
B9: I283T-N285P-N287T-Q290E-S322T-N388M-K394R-C430A-L432F-L434W-S436N-i443aR-dG462 (protein)
chain: B1 chain
B10: I283T-N285P-N287T-Q290E-S322T-N388M-K394R-C430A-i430aH-L432F-L434W-S436N-dG462 (protein)
chain: B1 chain
B11: I283T-N285P-N287T-Q290E-S322T-N388M-K394R-C430A-i430aS-L432F-L434W-S436N-dG462 (protein)
chain: B1 chain
B12: I283T-N285P-N287T-Q290E-S322T-N388M-K394R-C430A-L432F-L434W-S436N-i444aT-dG462 (protein)
chain: B1 chain
B13: I283T-N285P-N287T-Q290E-S322T-N388M-K394R-C430A-L432F-L434W-S436N-i444aP-dG462 (protein)
chain: B1 chain
B14: I283T-N285P-N287T-Q290E-S322T-N388M-K394R-C430A-L432F-L434W-S436N-i443aT-dG462 (protein)
chain: B1 chain
B15: V382L-N388M-K394R-C430N-L432F-L434W-S436N (protein)
chain: B1 chain with T283I, P285N, T287N, E290Q, T322S, V382L, A430N
B16: I283T-N285P-N287T-Q290E-S322T-N388M-K394R-C430A-i430aL-L432F-L434W-S436N-dG462 (protein)
chain: B1 chain
B17: I283T-N285P-N287T-Q290E-S322T-N388M-K394R-C430A-i430aG-L432F-L434W-S436N-dG462 (protein)
chain: B1 chain
B18: I283T-N285P-N287T-Q290E-S322T-N388M-K394R-C430A-i430aC-L432F-L434W-S436N-dG462 (protein)
chain: B1 chain
B19: N388M-K394R-S429D-C430N-L432F-L434W-S436N (protein)
chain: B1 chain with T283I, P285N, T287N, E290Q, T322S, S429D, A430N
B20: I283T-N285P-N287T-Q290E-S322T-N388M-K394R-C430A-L432F-L434W-S436N-i444aL-dG462 (protein)
chain: B1 chain
B21: I283T-N285P-N287T-Q290E-S322T-N388M-K394R-C430A-i430aR-L432F-L434W-S436N-dG462 (protein)
chain: B1 chain
B22: I283T-N285P-N287T-Q290E-S322T-N388M-K394R-C430A-L432F-L434W-S436N-i444aG-dG462 (protein)
chain: B1 chain
B23: I283T-N285P-N287T-Q290E-S322T-N388M-K394R-C430A-L432F-L434W-S436N-i444aH-dG462 (protein)
chain: B1 chain
B24: I283T-N285P-N287T-Q290E-S322T-N388M-K394R-i424aD-C430A-L432F-L434W-S436N-dG462 (protein)
chain: B1 chain
B25: I283T-N285P-N287T-Q290E-S322T-N388M-K394R-C430A-L432F-L434W-S436N-i444aS-dG462 (protein)
chain: B1 chain
B26: I283T-N285P-N287T-Q290E-S322T-N388M-K394R-C430A-L432F-L434W-S436N-i444aN-dG462 (protein)
chain: B1 chain
B27: I283T-N285P-N287T-Q290E-S322T-N388M-K394R-C430A-L432F-L434W-S436N-i443aL-dG462 (protein)
chain: B1 chain
B28: I283T-N285P-N287T-Q290E-S322T-N388M-K394R-C430A-i430aI-L432F-L434W-S436N-dG462 (protein)
chain: B1 chain
B29: V382A-N388M-K394R-C430N-L432F-L434W-S436N (protein)
chain: B1 chain with T283I, P285N, T287N, E290Q, T322S, V382A, A430N
B30: I283T-N285P-N287T-Q290E-S322T-N388M-K394R-C430A-i430aQ-L432F-L434W-S436N-dG462 (protein)
chain: B1 chain
B31: I283T-N285P-N287T-Q290E-S322T-N388M-K394R-i424aS-C430A-L432F-L434W-S436N-dG462 (protein)
chain: B1 chain
B32: I283T-N285P-N287T-Q290E-S322T-N388M-K394R-i429aN-C430A-L432F-L434W-S436N-dG462 (protein)
chain: B1 chain
B33: I283T-N285P-N287T-Q290E-S322T-N388M-K394R-C430A-L432F-L434W-S436N-i438aD-dG462 (protein)
chain: B1 chain

System: 3-methylcrotonic acid
Type: biochemical, Yersinia frederiksenii
Parameters: key: “+” representing a low increase in activity; “++++” representing a high increase in activity

Molecule	Activity relative to WT
B1	++++
B2	++++
B3	++++
B4	++++
B5	++++
B6	++++
B7	++++
B8	++++
B9	++++
B10	++++
B11	++++
B12	++++
B13	++++
B14	++++
B15	+
B16	++++
B17	++++

Molecule	Activity relative to WT
B18	++++
B19	+
B20	++++
B21	++++
B22	++++
B23	++++
B24	++++
B25	++++
B26	++++
B27	++++
B28	++++
B29	+
B30	++++
B31	++++
B32	++++
B33	++++
